From patent US12258605B2, “Alkane oxidation by modified hydroxylases” (The California Institute of Technology, priority 2005, dated 2025)
Positions count from the first letter of the chain named. Names and notes keep the numbering of the source.

B1: Wild-type BM-3: wild-type cytochrome P450 BM-3 from Bacillus megaterium, SEQ ID NO:1 (protein, listed as Bacillus megaterium)
chain: TIKEMPQPKTFGELKNLPLLNTDKPVQALMKIADELGEIFKFEAPGRVTRYLSSQRLIKEACDESRFDKNLSQALKFVRDFAGDGLFTSWTHEKNWKKAHNILLPSFSQQAMKGYHAMMVDIAVQLVQKWERLNADEHIEVPEDMTRLTLDTIGLCGFNYRFNSFYRDQPHPFITSMVRALDEAMNKLQRANPDDPAYDENKRQFQEDIKVMNDLVDKIIADRKASGEQSDDLLTHMLNGKDPETGEPLDDENIRYQIITFLIAGHETTSGLLSFALYFLVKNPHVLQKAAEEAARVLVDPVPSYKQVKQLKYVGMVLNEALRLWPTAPAFSLYAKEDTVLGGEYPLEKGDELMVLIPQLHRDKTIWGDDVEEFRPERFENPSAIPQHAFKPFGNGQRACIGQQFALHEATLVLGMMLKHFDFEDHTNYELDIKETLTLKPEGFVVKAKSKKIPLGGIPSPSTEQSAKKVRKKAENAHNTPLLVLYGSNMGTAEGTARDLADIAMSKGFAPQVATLDSHAGNLPREGAVLIVTASYNGHPPDNAKQFVDWLDQASADEVKGVRYSVFGCGDKNWATTYQKVPAFIDETLAAKGAENIADRGEADASDDFEGTYEEWREHMWSDVAAYFNLDIENSEDNKSTLSLQFVDSAADMPLAKMHGAFSTNVVASKELQQPGSARSTRHLEIELPKEASYQEGDHLGVIPRNYEGIVNRVTARFGLDASQQIRLEAEEEKLAHLPLAKTVSVEELLQYVELQDPVTRTQLRAMAAKTVCPPHKVELEALLEKQAYKEQVLAKRLTMLELLEKYPACEMKFSEFIALLPSIRPRYYSISSSPRVDEKQASITVSVVSGEAWSGYGEYKGIASNYLAELQEGDTITCFISTPQSEFTLPKDPETPLIMVGPGTGVAPFRGFVQARKQLKEQGQSLGEAHLYFGCRSPHEDYLYQEELENAQSEGIITLHTAFSRMPNQPKTYVQHVMEQDGKKLIELLDQGAHFYICGDGSQMAPAVEATLMKSYADVHQVSEADARLWLQQLEEKGRYAKDVWAG
B2: 35-E11: P450 BM-3 variant, SEQ ID NO:7: 53-5H substitutions plus E464G and I710T (protein)
chain: TIKEMPQPKTFGELKNLPLLNTDKPVQALMKIADELGEIFKFEAPGCVTRYLSSQRLIKEACDESRFDKNLSQALKFFRDFSGDGLFTSWTHEINWKKAHNILLPSFSQQAMKGYHAMMVDIAVQLVQKWERLNADEHIEVSEDMTRLTLDTIGLCGFNYRFNSFYRDQPHPFIISMVRALDEVMNKLQRANPDDPAYDENKRQCQEDIKVMNDLVDKIIADRKARGEQSDDLLTQMLNGKDPETGEPLDDGNISYQIITFLIAGHETTSGLLSFALYFLVKNPHVLQKVVEEAARVLVDPVPSYKQVKQLKYVGMVLNEALRLWPTFPAFSLYAKEDTVLGGEYPLEKGDEVMVLIPQLHRDKTIWGDDVEEFRPERFENPSAIPQHAFKPFGNGQRACIGQQFALHEATLVLGMMLKHFDFEDHTNYELDIKETLTLKPEGFVVKAKSKKIPLGGIPSPSTGQSAKKVRKKAENAHNTPLLVLYGSNMGTAEGTARDLADIAMSKGFAPQVATLDSHAGNLPREGAVLIVTASYNGHPPDNAKQFVDWLDQASADEVKGVRYSVFGCGDKNWATTYQKVPAFIDETLAAKGAENIADRGEADASDDFEGTYEEWREHMWSDVAAYFNLDIENSEDNKSTLSLQFVDSAADMPLAKMHGAFSTNVVASKELQQPGSARSTRHLEIELPKEASYQEGDHLGVIPRNYEGTVNRVTARFGLDASQQIRLEAEEEKLAHLPLAKTVSVEELLQYVELQDPVTRTQLRAMAAKTVCPPHKVELEALLEKQAYKEQVLAKRLTMLELLEKYPACEMKFSEFIALLPSIRPRYYSISSSPRVDEKQASITVSVVSGEAWSGYGEYKGIASNYLAELQEGDTITCFISTPQSEFTLPKDPETPLIMVGPGTGVAPFRGFVQARKQLKEQGQSLGEAHLYFGCRSPHEDYLYQEELENAQSEGIITLHTAFSRMPNQPKTYVQHVMEQDGKKLIELLDQGAHFYICGDGSQMAPAVEATLMKSYADVHQVSEADARLWLQQLEEKGRYAKDVWAG
modifications: mutant P450 35-E11 protein sequence
B3: 20-D3: P450 BM-3 variant, SEQ ID NO:11; 35-E11 plus H285R (protein)
chain: B2 chain with H285R
modifications: mutant P450 20-D3 protein sequence
notes: 35-E11 plus H285R

Key:
[1] = Propane hydroxylation (rate, total turnover, products); assay type: biochemical
Protocol: Cell lysates for high throughput screening were prepared as described previously (Peters et al., J. Am. Chem. Soc. 125:13442 (2003); incorporated by reference herein). High-throughput dimethyl ether (DME) screens were performed in 96 well plates as described previously. Improved mutants were selected based on an increased signal compared to 9-10A (for the saturation mutagenesis libraries) and 1-12G (for the recombination library). Reactions on octane and propane were analyzed by gas chromatography as described.
Rates of ethanol formation were measured over 30 min using gas chromatography (GC) coupled to an electron capture detector (ECD) and are reported as nmol ethanol/min/nmol enzyme. Errors are at most 10%. Total turnover number (ttn) was measured using GC after completion of the reaction and is reported as nmol product/nmol protein. Errors are at most 10%. Initial rates of propanol and octanol formation were measured over 1 min by GC and are reported as nmol product/min/nmol protein. Errors are at most 15%. The “ee” of 2-octanol (main product) was measured by GC; the favored enantiomer is listed in parenthesis. Wild-type P450 BM-3 primarily produces 3- and 4-octanol. The yields were not sufficient for the determination of ee for wt BM-3. Mutant 9-10A contains amino acid substitutions R47C, V78A K94I, P142S, T175I, A184V, F205C, S226R, H236Q, E252G, R255S, A290V, and L353V.
In Table 5 the product distribution is determined as ratio of a specific alcohol product to the total amount of all alcohol products (given in %). The product distribution for ketones was similar to alcohol product distribution. The numbers reported here are the (%) total of all ketones relative to total products (alcohols+ketones). The favored enantiomer is listed in parentheses.
For the data shown in Table 6 the initial NADPH consumption rates were measured over 15 seconds at 340 nm as nmol NADPH/min/nmol protein. Octane reactions contained 100 nM P450, 166 uM NADPH, and 4 mM octane in 1% ethanol and potassium phosphate buffer. […] Errors are at most 10%. Initial rates were measured by GC over 1 minute as nmol total products/min/nmol protein. Octane reactions contained 100 nM P450, 500 uM NADPH, and 4 mM octane in 1% ethanol and potassium phosphate buffer. Propane reactions contained 1 uM P450, 500 uM NADPH, and propane-saturated potassium phosphate buffer. Coupling was determined by ratio of product formation rate to NADPH consumption rate. Total turnover numbers were determined as nmol product/nmol enzyme. Octane reactions contained 10-25 nM P450, 500 uM NADPH, and 4 mM octane in 1% ethanol and potassium phosphate buffer. Propane reactions contained 10-25 nM protein, potassium phosphate buffer saturated with propane, and an NADPH regeneration system containing 100 uM NADP+, 2 U/mL isocitrate dehydrogenase, and 10 mM isocitrate.

[2] = Background NADPH oxidation rate in screen (cell lysate, no substrate); assay type: biochemical; settings: relative to 35-E11
Protocol: Libraries of mutants of 35-E11 were screened for phenotypes indicative of either increased product formation on small gaseous substrates slightly larger than methane. Additionally, they were screened for increased coupling of the consumption of NADPH reducing equivalents to product formation. Product formation was determined by measuring total amount of dimethyl ether hydroxylation while increased coupling was determined primarily by decreased background NADPH consumption rates (measured spectrophotometrically at 340 nm in the absence of substrate).
The relative dimethyl ether (DME) activity was measured, 1 hour after treatment with Purpald, as the average net and absorbance at 550 nm from 8 microtitre plate DME reactions of the mutant compared to 8 equivalent reactions of 35-E11. All values were normalized by measuring the P450 concentration in each well with CO binding. “Asteriks” indicate criteria used to select mutants from libraries for further characterization. The oxidation rate is measured as absorbance change at 340 nm over 1 minute upon the addition of NADPH to 8 microtitre plate wells containing P450-containing cell lysate and compared to 8 equivalent reactions of 35-E11. All values were normalized by measuring the P450 concentration in each well with CO binding. The total turnover number (TTN) was measured as the absorbance at 550 nm of methane reactions with each mutant after treatment with alcohol oxidase and […]

Molecule	activity on propane ([1]; listed as P450BM3)	activity on propane ([1]; listed as wild-type P450BM3)	activity on propane ([1]; listed as wildtype cytochrome P450 BM-3)	Propane ttn ([1]; after completion of the reaction) [nmol product/nmol protein]	Propane Rate ([1]; initial rate of propanol formation over 1 min by GC)	Relative background NADPH oxidation rate [2]
B1	no measurable activity	no detectable propane activity	inactive			
B2				6000	210 nmol product/min/nmol protein	1
B3						1.6
